Data published in article PMC4820125, “Aptamer-Assisted Detection of the Altered Expression of Estrogen Receptor Alpha in Human Breast Cancer”.

B1: ERaptD4 (ssDNA)
DNA: ATACCAGCTTATTCAATTCGTTGCATTTAGGTGCATTACGGGGGTTATCCGCTCTCTCAGATAGTATGTGCAATCA
B2: ERaptD8 (ssDNA)
DNA: ATACCAGCTTATTCAATTCGAGTAACGCTGTCTCTTCCGAATCGGGGGAAGGCGGAGGAGATAGTATGTGCAATCA
B3: ERaptD3 (ssDNA)
DNA: ATACCAGCTTATTCAATTGGGGATAACGTCGTCACGTCGTGTCATCATTGGTTCAGTCAGATAGTATGTGCAATCA

How the values were obtained:
[1] = target: PR-LBD (UniProt P06401 675-933); assay: aptamer ELISA; negligible binding; ITC: 10 mM Tris-HCl pH 8.0, 25 C; aptamer binding buffer (SELEX): 20 mM Tris-HCl pH 7.6, 120 mM NaCl, 5 mM KCl, 1 mM MgCl2, 1 mM CaCl2, RT (ca. 27 C); ELISA: 2; settings: protein: commercial; tags: GST
[2] = target: PR-DBD (human (cDNA from MCF-7), UniProt P06401 567-639); assay: as above; settings: protein: recombinant; tags: His (pET100/D-TOPO)
[3] = target: ERα full length (UniProt P03372 1-595); assay: aptamer ELISA; 500 nM aptamer; ITC: 10 mM Tris-HCl pH 8.0, 25 C; aptamer binding buffer (SELEX): 20 mM Tris-HCl pH 7.6, 120 mM NaCl, 5 mM KCl, 1 mM MgCl2, 1 mM CaCl2, RT (ca. 27 C); ELISA: 2; settings: protein: commercial, chain copies: 2
Sequence of ERα full length (P03372 whole entry): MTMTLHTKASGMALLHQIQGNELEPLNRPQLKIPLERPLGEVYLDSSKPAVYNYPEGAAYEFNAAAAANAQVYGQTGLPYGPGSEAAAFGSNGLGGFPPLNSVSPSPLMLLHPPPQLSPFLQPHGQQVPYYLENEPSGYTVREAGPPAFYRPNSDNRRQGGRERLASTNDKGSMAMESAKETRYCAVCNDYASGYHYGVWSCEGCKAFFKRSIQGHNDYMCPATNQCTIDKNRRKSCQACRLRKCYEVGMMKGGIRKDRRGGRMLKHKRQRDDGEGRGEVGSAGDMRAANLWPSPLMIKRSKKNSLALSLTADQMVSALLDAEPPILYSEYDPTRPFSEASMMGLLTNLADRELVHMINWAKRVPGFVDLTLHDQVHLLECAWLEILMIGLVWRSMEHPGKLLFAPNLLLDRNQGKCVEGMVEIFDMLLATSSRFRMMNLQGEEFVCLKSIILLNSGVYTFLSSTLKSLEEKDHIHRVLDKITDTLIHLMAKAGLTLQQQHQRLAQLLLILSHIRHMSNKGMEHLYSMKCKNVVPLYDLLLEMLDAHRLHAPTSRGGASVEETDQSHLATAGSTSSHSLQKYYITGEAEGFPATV

Sequence of PR-LBD (P06401 675-933): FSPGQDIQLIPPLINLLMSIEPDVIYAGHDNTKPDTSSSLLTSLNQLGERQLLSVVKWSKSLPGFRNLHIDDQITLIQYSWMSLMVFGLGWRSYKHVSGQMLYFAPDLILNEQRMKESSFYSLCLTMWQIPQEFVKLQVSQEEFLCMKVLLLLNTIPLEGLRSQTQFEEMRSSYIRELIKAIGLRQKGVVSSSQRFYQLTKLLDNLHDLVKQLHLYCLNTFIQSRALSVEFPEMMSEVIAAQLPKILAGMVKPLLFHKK
Sequence of PR-DBD (P06401 567-639): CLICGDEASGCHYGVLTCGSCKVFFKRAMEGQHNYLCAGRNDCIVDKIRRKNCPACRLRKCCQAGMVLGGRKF

Binder | binding result [1] | binding result [2] | binding signal [3] | binding signal ([3]; label: biotin)
B1 | no binding | no binding | 78.5 % of anti-ERα antibody signal | –
B2 | – | – | – | 50.5 % of anti-ERα antibody signal
B3 | – | – | – | 47.3 % of anti-ERα antibody signal
